Test results reported in patent publication US20230305005A1.

Assays:
[1] = molecular target: RBD polypeptide (RBD portion of the SARS-CoV-2 S1 spike protein) (SARS-CoV-2) (UniProt P0DTC2); experiment: BLI, biotinylated antibody on streptavidin tip, RBD polypeptide in PBS; row for 10 nM RBD
[2] = molecular target: RBD polypeptide (RBD portion of the SARS-CoV-2 S1 spike protein) (SARS-CoV-2) (UniProt P0DTC2); experiment: BLI, biotinylated antibody on streptavidin tip, RBD polypeptide in PBS; row for 100 nM RBD

- Kd [1]: 9.93 nM
- koff [1]: 0.00101 s⁻¹
- kon [1]: 102000 M⁻¹ s⁻¹
- Kd [2]: 9.93 nM
- koff [2]: 0.00101 s⁻¹
- kon [2]: 102000 M⁻¹ s⁻¹
Substance: Ty1-Biotin (VHH)
